Results published in patent US8758763B2, “Archaeal polar lipid aggregates for administration to animals” (National Research Council of Canada, priority 2006, dated 2014).

B1: OVA/saline: OVA in saline, no adjuvant control (protein, UniProt P01012 2-386, looked up)
Ovalbumin: GSIGAASMEFCFDVFKELKVHHANENIFYCPIAIMSALAMVYLGAKDSTRTQINKVVRFDKLPGFGDSIEAQCGTSVNVHSSLRDILNQITKPNDVYSFSLASRLYAEERYPILPEYLQCVKELYRGGLEPINFQTAADQARELINSWVESQTNGIIRNVLQPSSVDSQTAMVLVNAIVFKGLWEKAFKDEDTQAMPFRVTEQESKPVQMMYQIGLFRVASMASEKMKILELPFASGTMSMLVLLPDEVSGLEQLESIINFEKLTEWTSSNVMEERKIKVYLPRMKMEEKYNLTSVLMAMGITDVFSSSANLSGISSAESLKISQAVHAAHAEINEAGREVVGSAEAGVDAASVSEEFRADHPFLFCIKHIATNAVLFFGRCVSP
B2: OVA/CaCl2: OVA in saline supplemented with 15 mM CaCl2, no adjuvant group (protein, UniProt P01012 2-386, looked up)
Ovalbumin: B1 Ovalbumin

Assays:
EG.7 cells = assay: Cytotoxic T lymphocyte (CTL) assay, 51Cr release, spleen cells of immunized mice; assay type: in vivo, C57BL/6 mice; settings: i.n. at 0, 7, 21 d, 10 μg OVA/immunization; spleen cells at 36-42 d; target EG.7 cells
Procedure: For conducting cytotoxic (cytotolytic) T Lymphocyte (CTL) assays, EL-4 and EG.7 (subclone of EL-4 that has been stably transfected with the gene encoding for OVA expression), cell lines were obtained from the American Type Culture Collection (ATCC, Manassas, Va., USA). Both cell lines were maintained in RPMI 1640 medium (Life Technologies, Grand Island, N.Y.) supplemented with 8% fetal bovine serum (FBS, Invitrogen Canada, Inc., Burlington, Ontario, Canada), except that 400 μg/ml G418 supplement (Invitrogen Canada Inc.) was also added for maintaining the EG.7 cell line. All cells were cultured at 37° C. in a humidified atmosphere of air containing 8% CO2. […]
After 5 days incubation (37° C., 8% CO2 in air), the cells were recovered, washed, and counted for use as effector cells for the CTL assay. […] The culture supernatants were collected and the released radioactivity in 70 μl aliquots for gamma counter or in 50 μl aliquots for beta counter, was measured after adding to 150 μl Optiphase Supermix^R scintillant (PerkinElmer LAS Canada, Inc., Woodbridge, Ontario, Canada). Percent specific cell lysis was calculated as 100×[(cpm experimental−cpm spontaneous)/cpm maximum−cpm spontaneous)]. […]

OVA [1] = assay type: in vivo, Balb/c mice
OVA [2] = assay: Anti-OVA antibody responses (ELISA) in immunized C57BL/6 mice; settings: i.n. at 0, 7, 21 d, 10 μg OVA/immunization; 28 d

Molecule	CTL response, specific cell lysis (EG.7 cells)	anti-OVA IgA responses (OVA [1]; mouse, in vivo)	anti-OVA IgA responses in fecal, vaginal wash and serum samples (OVA [2])	serum IgG, IgG1 and IgG2a responses (OVA [2])	anti-OVA IgA antibody responses (fecal, vaginal, nasal, bile, serum) (OVA [1]; 28 d)
B1	no CTL response	negligible to not measurable	Little to no measurable	measurable, but smaller	–
B2	–	–	–	–	little or no measurable
